# The RNAGym collection of RNA variant scans (doi:10.7554/elife.80360)
# B1: Hairpin Ribozyme (parent)
# chain: GUCCUCUUUCACGUGCGCGUGAAAGAGAGAAGUGAACCAGAGAAACACACGUUGUGGUAUAUUACCUGGUA
# Variants of: B1
# Assay: self-cleavage, relative activity (ratio to wild type); higher = more cleavage; co-transcriptional
row,Variant,self-cleavage
1,G15C G68C,0.165
2,U14G G25C,0.312
3,G25A G32A,0.216
4,A28G A35G,0.864
5,U2C G34U,0.316
6,U9G U62A,0.0559
7,A39G A59C,0.122
8,C48A U58A,0.0644
9,A23U G40U,0.134
10,U5G C37G,0.125
11,G13A C18A,1.02
12,G13U C46A,0.193
13,G29U U53C,0.197
14,G51A U55G,0.407
15,U20A A39G,0.302
16,C6U U62C,0.188
17,A44C A64U,0.155
18,A23U C46A,0.224
19,U2A G21A,0.204
20,A44G A47C,0.222
21,U33A A45U,0.2
22,G15A G69U,0.217
23,A39G A64G,0.275
24,A22G U58G,0.528

row,Variant,self-cleavage
1,C18G A22G,0.804
2,C46G U55G,0.107
3,G34C A61C,0.733
4,C18A G69A,0.455
5,A61U U70C,0.231
6,C6G A64C,0.123
7,U7A A49U,0.16
8,G19U U33G,0.117
9,C12G G57C,0.165
10,G29U U63G,0.103
11,C4U G69U,0.177
12,U9G A22C,0.677
13,A31U A49G,0.121
14,A36C C38A,0.253
15,G1A U7C,0.31
16,U58C A61G,0
17,G42U G51U,0.345
18,U9A,0.691
19,C37A G69C,0.467
20,G42C A43G,0.177
21,A24G U58G,0.517
22,C3A A47C,0.239
23,U20C A39G,0.311
24,U8G G56C,0.0783

row,Variant,self-cleavage
1,G17U A39C,0.479
2,U8A A30G,0.13
3,A41G U62C,0.198
4,G29A A61C,0.163
5,A22C U62A,0.128
6,G13U A43G,0.186
7,A45U U70G,0.24
8,A44G A45G,0.228
9,G25A G51U,0.724
10,G1C G19U,0.194
11,C10A C38U,0.425
12,C10U A47U,0.109
13,A43U U70G,0.0463
14,U5C C18G,0.251
15,G1C U63C,0.285
16,A47G A61G,0.219
17,G51A G68C,0.31
18,A31C G40C,0.0931
19,G32A A59U,0.167
20,A39C C65G,0.167
21,U7A A59C,0.136
22,A24U A61G,0.231
23,A36U G69U,0.228
24,G13A G32A,0.0965

row,Variant,self-cleavage
1,U58A A64G,0.247
2,U8A U20G,0.711
3,U20G C37G,0.395
4,C6A A47C,0.221
5,A35U A44C,0.267
6,C37G C50A,0.14
7,U14G U63A,0.217
8,A41G G51C,0.677
9,C12A A47C,0.329
10,U33A C50A,0.18
11,A47U C65A,0.0949
12,U14A A43U,0.0759
13,C6A U55A,0.202
14,G57U U70G,0.225
15,A23G G40C,0.16
16,C3G G40U,0.0655
17,A44G A49C,0.0332
18,G1C G54C,0.072
19,A36G U67G,0.19
20,C38U G40C,0.118
21,C3A U58G,0.274
22,C6U A26G,0.31
23,C4G U33C,0.0651
24,C4G C16A,0.304

row,Variant,self-cleavage
1,A24C U58A,0.265
2,G27A C66U,0.13
3,G54C U55G,0.25
4,A43U A47C,0.178
5,A35C C65A,1.08
6,A23U A39U,0.385
7,C18A U70C,0.952
8,C3G G27U,0.164
9,A31C G56U,0.182
10,A22C A23U,0.932
11,C3U A43C,0.161
12,A30C A36U,0.122
13,A59C U62A,0.159
14,G51A G56C,0.148
15,C50G U63A,0.177
16,C38G G51U,0.312
17,A22U A59C,0.17
18,G21A A45U,0.286
19,C66G G69U,0.0961
20,U7C A36C,0.679
21,G15C C38A,0.22
22,U2A A28C,0.258
23,A23C A43G,0.0715
24,C6U G27A,0.309

row,Variant,self-cleavage
1,C38U U58A,0.333
2,G25A A36C,0.301
3,C18G U52A,0.833
4,C3G A31G,0.0813
5,A45G U60G,0.187
6,G1A U67A,0.193
7,G15A A59C,0.182
8,G34U G69A,0.93
9,C10U A61U,0.246
10,C4A U7G,0.221
11,U2A A26C,0.311
12,A11U G13C,0.737
13,A59U U63C,0.12
14,U9C A35U,0.708
15,U14A C38A,0.171
16,C6U U14G,0.791
17,G17C U20C,0.585
18,G29U A31U,0.151
19,G1C U63A,0.194
20,A44G A49G,0.126
21,G1A A22G,0.223
22,U2C C18A,0.118
23,C38G A39U,0.209
24,U14G C66A,0.0772

row,Variant,self-cleavage
1,G17A C48A,0.145
2,C10U G69A,0.405
3,A43C C48G,0.0498
4,U20C A28G,1.17
5,C48U U60C,0.389
6,A24U G27U,0.199
7,C4A G19A,0.174
8,C6G U20G,0.248
9,A59G,0.17
10,G17C U70A,0.862
11,A41G C66A,0.355
12,A24U C66G,0.207
13,G13U G51U,0.887
14,A22C U62G,0.155
15,A47U U52C,0.0664
16,G1C U60G,0.0347
17,G25A A43C,0.136
18,G15U C37U,0.784
19,C10U G57C,0.187
20,G27A G40U,0.179
21,C4G A26C,0.259
22,C38A U70A,0.165
23,U9G C37A,0.117
24,A41G C65U,1.05

row,Variant,self-cleavage
1,C3A A11G,0.686
2,C4A U70A,0.25
3,A28U A45G,0.121
4,G51A G68A,0.555
5,A24U G56A,0.212
6,U7G G42C,0.316
7,G1C A28C,0.262
8,A30G A41G,0.112
9,G56U C66U,0.0775
10,A35C G69U,0.189
11,A41C G57C,0.226
12,U2C G54C,0.127
13,A31U G57C,0.155
14,A36U C48U,0.0683
15,G57A,0.183
16,G51C U52G,0.469
17,G19A A59U,0.0875
18,A44G A59G,0.131
19,G1A U63A,0.146
20,G34C U52G,0.379
21,C6U G19U,0.715
22,G56A C65U,0.104
23,C4G A45U,0.112
24,C3G U5C,0.132

row,Variant,self-cleavage
1,A44G A71G,0.117
2,C3A A23U,0.619
3,A30G G57U,0.0464
4,G42C U70G,0.145
5,G40A U63G,0.126
6,A31U A41C,0.154
7,A24G G27U,0.303
8,U58C A71U,0.935
9,A47G A49U,0.0814
10,G1A G19U,0.13
11,C3U U5G,0.318
12,G19U G21U,0.784
13,C3G A31C,0.0694
14,C16A G57A,0.129
15,G21A C65U,0.147
16,C4A A23C,0.222
17,G21C A41U,1.16
18,U20C G68U,0.257
19,C3G C50U,0.13
20,U20G G42C,0.206
21,A36G U63A,0.23
22,G27A U63A,0.103
23,U7A A36C,0.573
24,C12G G51C,0.753

row,Variant,self-cleavage
1,G42C U63G,0.238
2,A49U U52A,0.209
3,G51A A59G,0.25
4,C50U U58C,0.232
5,G40C G57C,0.134
6,G42C C46U,0.12
7,A24U U62A,0.2
8,C46A A61U,0.171
9,G15C U60A,0.709
10,A39U U52G,0.252
11,G51U G56C,0.201
12,A30G G51C,0.199
13,U33G U67C,0.111
14,A24U A30U,0.168
15,C3A U62A,0.184
16,G1A A23G,0.123
17,U8G A36G,0.76
18,C48G G57C,0.169
19,A22C U63G,0.109
20,G17C G54C,0.387
21,G21A G42A,0.218
22,C65A U70A,0.686
23,C38G U52G,0.0784
24,A35C U60A,0.664

row,Variant,self-cleavage
1,G21C A35U,0.751
2,G51A C66G,0.611
3,G57C C65U,0.192
4,A23G A41G,0.678
5,A41C A49U,0.0586
6,A43U G69C,0.119
7,A22U U58A,0.589
8,C18U U67G,0.303
9,A47U G54A,0.159
10,G1A G25U,0.102
11,U33A C48G,0.123
12,G40A A64G,0.119
13,G29C U52G,0.0183
14,A28G U70C,0.859
15,G51C G68U,0.227
16,C46U A61C,0.0903
17,A35G C38A,0.162
18,G29U A49G,0.173
19,G21C A26C,0.164
20,G42U A45G,0.131
21,C38G U55C,0.0193
22,G13U G17U,0.712
23,C4A A24C,0.137
24,A28G A35C,1.27

row,Variant,self-cleavage
1,G21U U55C,0.288
2,C6G U55A,0.13
3,C38G U70A,0.144
4,A22U G51U,0.761
5,C4U U60C,0.48
6,A36G A39U,0.517
7,G15A G69A,0.362
8,C4U C66A,0.182
9,U33C A45G,0.227
10,G25U G34A,0.897
11,A24U U63G,0.146
12,G27A A47U,0.111
13,C6A U20G,0.518
14,A24U A45C,0.179
15,G29U G69C,0.0911
16,G34A A49C,0.12
17,G1A U55G,0.0224
18,C10U A47C,0.257
19,A41G A47G,0.0362
20,U8A C10G,0.44
21,G15U G68U,0.329
22,A11U G17C,0.566
23,A24C A35C,0.778
24,U8C A23G,0.709

row,Variant,self-cleavage
1,A39C U53C,0.42
2,C16A C66U,0.416
3,G40U A47G,0.18
4,G25U A49G,0.217
5,C10G G25U,0.481
6,A23C U62A,0.229
7,U8A U67C,0.186
8,G54A A61G,0.397
9,G1A U53C,0.0768
10,G42U C50A,0.189
11,G25U G68A,0.183
12,U8C G19U,0.582
13,U7G C18G,0.739
14,G42C U62G,0.0896
15,G19A A24C,0.615
16,G34A C66A,0.469
17,U62A C65A,0.165
18,C3G C18G,0.34
19,C46U U52C,0.215
20,A43G C66A,0.171
21,U58A U60G,0.646
22,A36C C66A,0.268
23,A36G U70C,1.35
24,G32U C48U,0.15

row,Variant,self-cleavage
1,C10U C38U,0.387
2,C6U A11U,0.578
3,C6U A36C,0.705
4,G15A G68U,0.232
5,G17A C46A,0.191
6,G42A U67A,0.219
7,U53C C66A,0.249
8,U9C C66A,0.248
9,G17U C66U,0.537
10,C38U,0.497
11,G54A U62C,0.195
12,A23C A41U,0.911
13,C50A A59C,0.167
14,C18G G34C,1.17
15,G13C C50U,0.281
16,C38U G57C,0.182
17,U52G U55A,0.135
18,G21U G34A,1.01
19,U7C A26C,0.275
20,A28C G29U,0.0915
21,U9A U52A,0.877
22,C6G G27C,0.174
